# Measured values: publication PMC2700067
# Where two headings read alike, the source gives them in different places.
# How the values were obtained:
# Gag-CY (HIV-1) [1] = experiment: split reporter (BiFC, NanoBiT); BiFC quantified by flow cytometry: 293T cells co-transfected with 0.25 μg of each BiFC construct and mRFP1, harvested about 14 h after transfection and fixed; percent of mRFP+ cells that are YFP+, and mean intensity of YFP+ cells
# Gag-CY (HIV-1) [2] = experiment: as above; remark: listed apart in the source
substance,measurement,setting,value
Gag-NY (natural protein),percent of mRFP+ cells that are YFP+ (BiFC),Gag-CY (HIV-1) [1],3.5%
same,percent of mRFP+ cells that are YFP+ (BiFC),Gag-CY (HIV-1) [2],3.3%
